From patent US20240026407A1, “MODIFICATION OF SAPONINS” (GLAXOSMITHKLINE BIOLOGICALS SA, priority 2020, published 2024) come the findings set out here.

What all share (type): biochemical, Quillaja saponaria
The nature of test [1]: Experiment 5-1: screening of additional glucosidases for deglycosylation with purified QS-18 (0.04 mg/ml) at pH 7.5 and 30 deg C. The following applies: pH 7.5, 30 degrees C, 18 hours, LCMS/MS. On the procedure:
The 94 additional genes, together with positive control (DNA encoding SEQ ID No. 262) and negative control, were transformed, expressed, lysed and reacted in the same manner as described above for Experiment 4-1, except the reaction was incubated at 30 degrees C. for 18 hours.
Samples were analysed by LCMS/MS according to the procedure in Experiment 4-1.

Test [2] in a line: Experiment 5-2: screening of additional glucosidases for deglycosylation with QS-18 in crude bark extract (80%) at pH 6 and 35 deg C. The following applies: CBE 80%, pH 6, 35 deg C, 18 hours; UV HPLC. In outline:
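Clarified glucosidase lysate (prepared at pH 6) was incubated with pH 6-adjusted crude bark extract at 35 deg C with shaking for 18 hours. Reactions were quenched with MeCN containing 2% AcOH and hexanophenone, then analysed by UV HPLC.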

A short description of test [3]: Experiment 5-3: screening of additional glucosidases for deglycosylation with QS-18 in treated bark extract (80%) at pH 6 and 35 deg C. The following applies: TBE 80% (QS-21 approx. 4 g/L), pH 6, 35 deg C; UV HPLC. On the procedure: Experiment 5-1 was repeated, replacing CBE with Treated Bark Extract (TBE) at pH 6. TBE was prepared from CBE by PVPP treatment and concentration, to provide TBE with a QS-21 concentration of approximately 4 g/L. TBE was adjusted to pH 6 by dropwise addition of 2M NaOH with stirring.

Bounds are passed on as bounds.

B1: 864 (protein, listed as Stagonospora sp.)
chain: MPYKVNDESREGEGLNALLGALTLDEKISLLSAKNIWETPEVERVGIPSLKVTDGPNGARGGEFFDGTTAACFPACVSLAATFDRALSRQVGRALGQEAITKGAYVVLGPTVCCHRSPLGGRNFEAFSEDPVLSGALASEYVKGLQEERVAATVKHFLANEQDTRRFSVDQTISERALREIYLKPFEIVAKQADPWCFMSSYPKINGKHVDAQSKFLIDILRKEWGYEGMVMSDWGAASTVEGIKYGLDMEMPGPPRQREANLVRNAVKKGQISEGDIDARVLSTLNLLKKVGKFSDRKDTPKEQAIDRPEHRALIRKAGREGIVLLKNQNNILPIDIKKTQKVALLGPLAKYAAAHGGGSASLNCHYKITPYDAFTERLGKDVEITHSKGAHIFRVYPDLDAGCKNAHGNVGFLAEYFMEGDIEPSSVPFRIEEFPRGSFNTLMNTNVTGCKSVRFTTTYRPPVTGKHYLSFSGLGPSHLSINGVMVAEQKNSTKDAMSFFLGVQEEERVQFDFDAAKTYDLIMETHPSPTNNAELYLMEGQTSIHLGFIAQAEMEQDVLAEAVDLAKDADLAIVFVGNTTQWETEGQDLSSMTLPADGSQDNLIASVVAANPKTIVVNTTGVPVELPWLDDVPAFLQAWYAGQETGNAILDVLLGEMSPSGKLPISWPKKYEHTGCYGNFGLDSFDSRKVEYVEGVFVGYRWFDRQWGHDKEVRFPFGYGLSYTEFSITDTRISGSIANDKNARVTVAANVKNVGSMSGSEILQVYLEPPVEEGIDRPVKGLVGFVKVELQPKEEKTVEVVFARDAAAFWDEAANEWAVSMGLHHIVVATSAAPVDIKARLELHVENAFKFDP
On to B1, for which, in test [1], the “Experiment 5-1 % conv” value came out at 3.9%. For the same molecule, the “Experiment 5-2 % conv” value in test [2] is <0.5%. Moreover, in test [3], the “Experiment 5-3 % conv” value is <0.5%.

B2: 848 (protein)
chain: MTLEEKVSMVAGADAWHSTGVERLGIPAIKVTDGPNGARGGDFGGGVGSACFPVGVCLGSTWNTALIERVGQALGQEVQSKQAHILLAPTVNIHRSPLNGRNFECYSEDPYLTARIAAAYITGVQKQGVGACIKHFVCNDSEFERHSISSEVGERALREIYLPPSETAVREAGVWAVMSAYNKLNGTYCSENPYTLLEILKGEWGFEGIVISDWGGTYSTVEAAANGLDLEMPGPARWMGEKLLQAMRDGQVSGPKKLGEAVDDKVRRLLWTIEKAGAQLGPEPPEQAIDRPEHRALIRQAAGEGIVLLKNDGVLPLDGARVKRIAVIGPNAAEAKIMGGGSAQVKAHYAVSPLDGIRARAGEAVDVQCALGCTNYREIPELKTEWLTPVGGGESGWTVAYYNNLDLAGDPVRAETTDRTRMMWFGQVAPGVDRECFSARLSGTLTVPQSGTYTLSLNSAGVSRIAIDGELVLDNWTDYRPSRGPFDRDRKVPTAEVELTAGQGYTFVVEYSKQQSPRFAMLRVGCLPAQPADLMERAVQAAAKADVALVFIGTSGEWESEGFDRPDMELPGRQVELLEAVAAANPNTVAVLNTGSPVSVRWLDKVAALVEAWFPGQECGNAIADVLFGDVNPSGRLSQTWPVRLQDNPAYINYPGENGRVLYGEGLFVGYRYYEKKQIEPRFPFGHGLSYTTFEYGALRLQSEYTLGEPIAVSVDVTNTGPVAGQEVVQLYVRDEESSLVRPEKELKAFAKLALEPGETQTVTLTLDERALSFYDDAKAGWVAEAGEFTVLVGASSRDIRCTARFTLTVPPDRS
modifications: uncultured microorganism
As for B2, the “Experiment 5-1 % conv” value in test [1] is recorded as 3.8%. The “Experiment 5-2 % conv” value in test [2] was <0.5%. Further, the “Experiment 5-3 % conv” value in test [3] is listed as <0.5%.

B3: 809 (protein, listed as Rhodococcus erythropolis)
chain: MELTAATGRNDVTENYVDGLSLEEKASLTSGSDFWHSQSVAGIESILLTDGPHGVRKQPEGGDALGLGHSIPATCFPPAVGLGSSWNLDLIRQVGEALGDEAKAEQVSVLLGPGINIKRSPLCGRNFEYVSEDPFLSGRVAAALITGIQSRGVGTSLKHFAANNQEHDRMRVSADVDERTLREIYLAGFEYAVKTAAPTTVMCSYNKINGVYSSQNHWLLTEVLREQWGFDGLVVSDWGAVNDRVAALAAGLDLEMPPTGTDTQIVDAVRGGDLDESVLTTAAERLSTLVKRTAAARTEGHTYDVERHHELARTAAAESAVLLANDGELLPLTPGGQTVAVIGEFACSPRYQGAGSSQVVPTKLDNALDAILDLEGADRVTFAPGFTFDGTPDDHMVTEAVDAARRADVAVLFLGLPSATESEGFDRTDIELPADQIALLEAVHGANPNTVVVLANGGVVSIEPWKDHAAAILEGWLLGQAGGSAIADLLFGITNPSGRLTETIPLRLQDNPSYLHFPGSQQHVRYGEGLYVGYRYYDSALREVAYPFGFGLSYTTFDITDTSVDAGKNSAEVTVTVRNSGDRSGSTVVQVYVHDASASIDRPAQELKGFAKVHLDPDESATVTITLDTRAFAYWSVAAQDWAIEPGDYEIRVGFSSRDIATTDTITLAGNVGVGTLDAMSTIGEWLAHPVGSAVLGAAMAAAAGDGAQAVSPEMMALAGSMPLGKLATFGLGITEEQVAQLVAAAAQPGS
B3: the “Experiment 5-1 % conv” value in test [1] came to 6.3%. For the same molecule, the “Experiment 5-2 % conv” value in test [2] is reported as <0.5%. Moreover, in test [3], the “Experiment 5-3 % conv” value is reported as <0.5%.

B4: 875 (protein, listed as Exophiala spinifera)
chain: MGSYSGSQQGFESIISGLTVEEKATLLSGADFWTTSPVTRVGIPALKVSDGPNGARGGHFQGKTTSACFPASVSLAASFDREFAYKIGRALGQETKTKGAHVLLGPTVCHHRDPRGGRNFESFSEDPLLAGELASEWIAGLQSEGVGATVKHYAVNEQETRRFTIDARVDQRALREIYLKPFEIAVKRADPWAIMTSYNLVNGKHADEHKELITDILRGQWGFKGLVMSDWGGTNSVAPSLNAGHDLEMPGPPLKRTVDNIQRALQTGELTEDTLNQRVGNVLKLLQRAGKFENPEIAEEQAVDLPEHRSLIRQAAAESMVLLKNTNNILPLKSTNTKSIALLGLAREYLGHGGGSASVNSHHKVTAYEALQAAVGSSVQLNYAEGARIVRNLSPLSENVYNEEGVPGFTMKTFSKLNGDNPTVSTVPSSVYRTLEPSSIDQMTLLGTFKPKTSGLHYISLSTLGGTRVYINDELVFDYSNSQTTDIMAFLIGSPGEDKKRYLFTAGESYRIRIEAKATKDTISGFSLFTKEAIGFSLGFALESEHDADLLTAAIEAAKSSDVAVVFVGHTPIWESEGADRSGMDLPKDGSLDALVVAAAKVNPNTVVVNSTGSAISMPWIEDVAAVVQAWFPGQEAGHSIADVLLGKVTPSGKLPVTFPRAITDVPSYENFPGDIKNEVVHYKESIYTGYRHFDRRPEGVLFPFGFGLSYTTFDVVVTSVSRTKLRNHETLTVSADVTNTGTTEGAEVVQVYVGAGEGTSAIDRPAKELAGFAKVHLRPGEARKVAITFGRDSVAYWNESRDKWSVDKGAYTIYVGTSSVDIAGKLEVEVPEAFDFDP
As to B4, in test [1], the “Experiment 5-1 % conv” value is reported as 4.7%. In addition, the “Experiment 5-2 % conv” value in test [2] is <0.5%. In addition, the “Experiment 5-3 % conv” value in test [3] was <0.5%.

B5: 862 (protein, listed as Bifidobacterium thermacidophilum)
chain: MDATTGTNKAPAPAQARQGNGRGGNEGRNASEIRHRVDDLTLEQKASLTSGADAWHVQGIDECGIPGYMITDGPHGLRKARPAEEQKTGLGDAVPVTCFPPAAGLSSSWDPGLVREVGEAMGEECIQEKVAVILGPAVNIKRNPLGGRCFEYWSEDPFLAGHEAVGIVEGVQSKGVGTSLKHFAANNQETDRLRISATISPRALREIYLPAFEYIVKTAQPWTVMCSYNRINGVHSAQNRWLLTDVLRREWGFQGIVMSDWGADHDRVASLNAGLNLEMPPSGTDDQIVAAVRDGRIAPEQLDSMAQGMIDLVAKAQPAMSRDGYRYDRDRHYDIARRAARESMVLLKNEQGTLPVRPGVRVAVIGEFARTARYQGGGSSHITPDRMSSFLDATARRGEQVDFAPGFTLDLDPADPVLEAQAIETARHADIVLMFMGLPEAAESEGFDRTSLDIPAKQTSLLHKISAVNPHVAVILSNGSVVSVAPWCDDAQAILESWLLGEAGGDALADVVFGDVSPSGKLAQTIPLDINDDPTMLNWPGEEGHVDYGEGVFVGYRYYDTYRKPVAYPFGFGLSYATFDVHDARVRRLGVDDAARVAAERAAGDAAQGNDVARADGAAHVDGACGAVVRVDATVTNTSDAPGAQVVEIYVAPGKSQVARPVHELKGFARVDLAPGESKAVSITLDERAFAYWSQRFDDWHVEAGDYTVEVGTSSRDIVARIPAHLDGDGKTMPLDEWSTFGEWAADPVGARVVEAVGREADQGRLPRLPQNGVMRIFLMAAPVNSLQMILGEEGLEVARFMLDEYRRIRG
Consider B5, for which the “Experiment 5-1 % conv” value in test [1] is listed as 4.2%. Further, in test [2], the “Experiment 5-2 % conv” value is <0.5%. In addition, the “Experiment 5-3 % conv” value in test [3] was <0.5%.
